Laboratory results published in patent publication US20180273595A1.

Assays:
[1] = target: recombinant His-tagged full-length ERG (UniProt P11308); experiment: Kd table of synthetic peptides on ERG; assay not given
[2] = target: recombinant His-tagged full-length ERG (UniProt P11308); experiment: OctetRED; Kd table of synthetic peptides on ERG

Chain of recombinant His-tagged full-length ERG (P11308 whole entry): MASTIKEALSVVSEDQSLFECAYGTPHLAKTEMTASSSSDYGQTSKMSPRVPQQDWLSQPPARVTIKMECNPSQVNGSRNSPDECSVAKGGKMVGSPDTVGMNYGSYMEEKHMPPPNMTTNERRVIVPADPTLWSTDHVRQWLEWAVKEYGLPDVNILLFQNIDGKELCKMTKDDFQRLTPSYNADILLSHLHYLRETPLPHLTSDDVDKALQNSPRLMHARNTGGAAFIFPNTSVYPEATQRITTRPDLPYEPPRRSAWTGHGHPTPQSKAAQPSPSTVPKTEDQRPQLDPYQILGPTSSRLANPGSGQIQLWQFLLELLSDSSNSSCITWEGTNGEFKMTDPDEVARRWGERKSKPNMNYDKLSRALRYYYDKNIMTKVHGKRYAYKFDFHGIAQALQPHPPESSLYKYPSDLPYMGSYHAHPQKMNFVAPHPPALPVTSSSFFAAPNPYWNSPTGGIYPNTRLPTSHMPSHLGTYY

| Kd [1] | Kd [2] | Substance |
| --- | --- | --- |
| 7.5 µM | – | 3-mer PYL capped at both termini (Ac-PYL-NH2) (peptide) |
| 8.7 µM | – | 3-mer PYL capped at the N-terminus only (Ac-PYL) (peptide) |
| – | > 100 µM | 7-mer LPPYLFT capped at the C-terminus only (LPPYLFT-NH2) (peptide) |
| > 100 µM | > 100 µM | EIP1 capped at both termini (Ac-LPPYLFT-NH2) (peptide) |
